Source: patent publication US20120207760A1

Assays:
Conditions in all cases: remark: other sources report otherwise
[1] = biological target: T1, recombinant homotrimeric HA, A/Japan/305/57 H2N2 (Influenza A virus A/Japan/305/57 (H2N2)); test: trimeric HA microarray, transfection set 1
[2] = biological target: T2, recombinant homotrimeric HA, A/South Carolina/1/18 H1N1 (Influenza A virus A/South Carolina/1/18 (H1N1)); test: trimeric HA microarray, transfection set 1
[3] = biological target: T3, recombinant homotrimeric HA, A/Vietnam/1203/04 H5N1 (Influenza A virus A/Vietnam/1203/04 (H5N1)); test: trimeric HA microarray, transfection set 1
[4] = biological target: T4, recombinant homotrimeric HA, A/common magpie/Hong Kong/5052/07 H5N1 (Influenza A virus A/common magpie/Hong Kong/5052/07 (H5N1)); test: trimeric HA microarray, transfection set 1
[5] = biological target: T5, recombinant homotrimeric HA, A/California/4/09 H1N1 (Influenza A virus A/California/4/09 (H1N1)); test: trimeric HA microarray, transfection set 3
[6] = biological target: recombinant homotrimeric HA, A/Egypt/3300-NAMRU3/08 H5N1 (Influenza A virus A/Egypt/3300-NAMRU3/08 (H5N1)); test: trimeric HA microarray, transfection set 3
[7] = biological target: recombinant homotrimeric HA, A/Hong Kong/2108/03 H9N2 (Influenza A virus A/Hong Kong/2108/03 (H9N2)); test: trimeric HA microarray, transfection set 3
[8] = biological target: T6, recombinant homotrimeric HA, A/Indonesia/5/05 H5N1 (Influenza A virus A/Indonesia/5/05 (H5N1)); test: trimeric HA microarray, transfection set 3
[9] = biological target: T1, recombinant homotrimeric HA, …; test: trimeric HA microarray, transfection set 3
[10] = biological target: T7, recombinant homotrimeric HA, A/Solomon Islands/3/06 H1N1 (Influenza A virus A/Solomon Islands/3/06 (H1N1)); test: trimeric HA microarray, transfection set 3
[11] = biological target: T2, recombinant homotrimeric HA, A/South …; test: trimeric HA microarray, transfection set 3
[12] = biological target: T3, recombinant homotrimeric HA, …; test: trimeric HA microarray, transfection set 3
[13] = biological target: recombinant homotrimeric HA, A/chicken/Vietnam/NCVD-016/08 H5N1 (Influenza A virus A/chicken/Vietnam/NCVD-016/08 (H5N1)); test: trimeric HA microarray, transfection set 3
[14] = biological target: T4, recombinant homotrimeric HA, A/common …; test: trimeric HA microarray, transfection set 3
[15] = biological target: T8, recombinant homotrimeric HA, A/swine/Ontario/01911-2/99 H4N6 (Influenza A virus A/swine/Ontario/01911-2/99 (H4N6)); test: trimeric HA microarray, transfection set 3
[16] = biological target: T5, recombinant homotrimeric HA, …; test: trimeric HA microarray, transfection set 4
[17] = biological target: T6, recombinant homotrimeric HA, …; test: trimeric HA microarray, transfection set 4
[18] = biological target: T1, recombinant homotrimeric HA, …; test: trimeric HA microarray, transfection set 4
[19] = biological target: T7, recombinant homotrimeric HA, A/Solomon …; test: trimeric HA microarray, transfection set 4
[20] = biological target: T2, recombinant homotrimeric HA, A/South …; test: trimeric HA microarray, transfection set 4
[21] = biological target: T3, recombinant homotrimeric HA, …; test: trimeric HA microarray, transfection set 4
[22] = biological target: T8, recombinant homotrimeric HA, …; test: trimeric HA microarray, transfection set 4
[23] = biological target: T5, recombinant homotrimeric HA, …; test: trimeric HA microarray, transfection set 5
[24] = biological target: T6, recombinant homotrimeric HA, …; test: trimeric HA microarray, transfection set 5
[25] = biological target: T1, recombinant homotrimeric HA, …; test: trimeric HA microarray, transfection set 5
[26] = biological target: T7, recombinant homotrimeric HA, A/Solomon …; test: trimeric HA microarray, transfection set 5
[27] = biological target: T2, recombinant homotrimeric HA, A/South …; test: trimeric HA microarray, transfection set 5
[28] = biological target: T3, recombinant homotrimeric HA, …; test: trimeric HA microarray, transfection set 5
[29] = biological target: T8, recombinant homotrimeric HA, …; test: trimeric HA microarray, transfection set 5

Binder	Trimeric HA Binding RLU [1] [RLU]	Trimeric HA Binding RLU [2] [RLU]	Trimeric HA Binding RLU [3] [RLU]	Trimeric HA Binding RLU [4] [RLU]	Trimeric HA Binding RLU [5] [RLU]	Trimeric HA Binding RLU [6] [RLU]	Trimeric HA Binding RLU [7] [RLU]	Trimeric HA Binding RLU [8] [RLU]	Trimeric HA Binding RLU [9] [RLU]	Trimeric HA Binding RLU [10] [RLU]	Trimeric HA Binding RLU [11] [RLU]	Trimeric HA Binding RLU [12] [RLU]	Trimeric HA Binding RLU [13] [RLU]	Trimeric HA Binding RLU [14] [RLU]	Trimeric HA Binding RLU [15] [RLU]	Trimeric HA Binding RLU [16] [RLU]	Trimeric HA Binding RLU [17] [RLU]	Trimeric HA Binding RLU [18] [RLU]	Trimeric HA Binding RLU [19] [RLU]	Trimeric HA Binding RLU [20] [RLU]	further results
TCN-504 (3251_K17) (antibody, V domains shown) VH: QVQLQESGPGLVKPSETLSLTCAVSGVSISNIDFYWGWIRQPPGKGLEWIGNIYYTGITFYNPSLSSRVAISIDTSKNQFSLTLTSVTAADTAMYYCARHYGDSEAINDAFDIWGQGTMLTVSS VL: EIVMTQSPATLSVSPGERATLSCRASQSVGNSLAWYQQRPGQAPRLLIYGASTRATGIPPRFSGSGSGTEFTLTISSLQTEDFAVYYCQQYINWRPLSFGGGTKVEIK	15100	21500	1300	29700	18600	18000	36	18600	36000	32700	27600	13300	10300	17800	34500	549	18200	19600	14600	21700	Trimeric HA Binding RLU [21]: 25700 RLU; Trimeric HA Binding RLU [22]: 21800 RLU; Trimeric HA Binding RLU [23]: 17600 RLU; Trimeric HA Binding RLU [24]: 18500 RLU; Trimeric HA Binding RLU [25]: 23300 RLU; Trimeric HA Binding RLU [26]: 30100 RLU; Trimeric HA Binding RLU [27]: 32000 RLU; Trimeric HA Binding RLU [28]: 21500 RLU; Trimeric HA Binding RLU [29]: 54800 RLU
TCN-523 (5248_A17) (antibody, V domains shown) VH: QVQLVQSGAEVKKPGSSVKVSCKASGGSFSNYAFSWVRQAPGQGLEWMGGTIPLLGTTNYAQKFQGRVTISADQFTSTAYMELGSLRSEDTAVYYCTRRKMTTAFDSWGQGTLVTVSS VL: QPVLTQPPSASASLGASVTLTCTLSSAYSNYKVDWYQQRPGKGPRFVMRVGTGGIVGSKGDGIPDRFSVLGSGLNRYLTIKNIQEEDESDYHCGADHGSGSNFVSPYVFGGGTKLTVL	191	26400	80	6240	19400	29100	51	22000	4550	11000	23700	22100	18900	640	1640	28800	24500	3840	371	23000	Trimeric HA Binding RLU [21]: 30900 RLU; Trimeric HA Binding RLU [22]: 850 RLU; Trimeric HA Binding RLU [23]: 34400 RLU; Trimeric HA Binding RLU [24]: 55000 RLU; Trimeric HA Binding RLU [25]: 22000 RLU; Trimeric HA Binding RLU [26]: 37600 RLU; Trimeric HA Binding RLU [27]: 52000 RLU; Trimeric HA Binding RLU [28]: 27800 RLU; Trimeric HA Binding RLU [29]: 1700 RLU
